According to patent US20250312444A1:

What was measured:
Assay in all cases: cell-based or functional assay
[1] = molecular target: T1, cynomolgus monkey RXFP1 receptor (cynomolgus monkey)
T1 sequence: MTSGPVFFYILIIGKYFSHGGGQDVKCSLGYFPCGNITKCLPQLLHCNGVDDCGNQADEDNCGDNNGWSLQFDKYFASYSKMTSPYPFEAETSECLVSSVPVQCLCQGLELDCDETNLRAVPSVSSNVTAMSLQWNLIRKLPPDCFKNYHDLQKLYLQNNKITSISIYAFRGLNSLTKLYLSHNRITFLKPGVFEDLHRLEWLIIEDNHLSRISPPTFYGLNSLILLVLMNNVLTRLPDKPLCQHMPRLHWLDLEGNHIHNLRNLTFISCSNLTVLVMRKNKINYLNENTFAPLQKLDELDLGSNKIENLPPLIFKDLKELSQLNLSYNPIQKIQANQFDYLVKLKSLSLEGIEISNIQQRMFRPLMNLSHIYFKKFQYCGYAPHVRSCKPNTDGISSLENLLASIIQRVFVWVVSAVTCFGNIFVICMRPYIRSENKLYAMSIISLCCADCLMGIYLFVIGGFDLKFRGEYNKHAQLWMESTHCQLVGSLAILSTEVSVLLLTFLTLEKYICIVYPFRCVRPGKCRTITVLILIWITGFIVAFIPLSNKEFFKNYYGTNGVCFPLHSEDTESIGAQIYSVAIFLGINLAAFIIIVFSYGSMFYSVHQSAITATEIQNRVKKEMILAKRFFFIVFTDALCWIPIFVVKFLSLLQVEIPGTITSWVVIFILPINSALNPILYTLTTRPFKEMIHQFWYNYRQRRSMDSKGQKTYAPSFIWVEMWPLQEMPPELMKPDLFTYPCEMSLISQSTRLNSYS

dog RXFP1 receptor (dog) = molecular target: dog RXFP1 receptor (dog)
[2] = molecular target: T2, human RXFP1 receptor (human) (UniProt Q9HBX9)
T2 sequence (looked up): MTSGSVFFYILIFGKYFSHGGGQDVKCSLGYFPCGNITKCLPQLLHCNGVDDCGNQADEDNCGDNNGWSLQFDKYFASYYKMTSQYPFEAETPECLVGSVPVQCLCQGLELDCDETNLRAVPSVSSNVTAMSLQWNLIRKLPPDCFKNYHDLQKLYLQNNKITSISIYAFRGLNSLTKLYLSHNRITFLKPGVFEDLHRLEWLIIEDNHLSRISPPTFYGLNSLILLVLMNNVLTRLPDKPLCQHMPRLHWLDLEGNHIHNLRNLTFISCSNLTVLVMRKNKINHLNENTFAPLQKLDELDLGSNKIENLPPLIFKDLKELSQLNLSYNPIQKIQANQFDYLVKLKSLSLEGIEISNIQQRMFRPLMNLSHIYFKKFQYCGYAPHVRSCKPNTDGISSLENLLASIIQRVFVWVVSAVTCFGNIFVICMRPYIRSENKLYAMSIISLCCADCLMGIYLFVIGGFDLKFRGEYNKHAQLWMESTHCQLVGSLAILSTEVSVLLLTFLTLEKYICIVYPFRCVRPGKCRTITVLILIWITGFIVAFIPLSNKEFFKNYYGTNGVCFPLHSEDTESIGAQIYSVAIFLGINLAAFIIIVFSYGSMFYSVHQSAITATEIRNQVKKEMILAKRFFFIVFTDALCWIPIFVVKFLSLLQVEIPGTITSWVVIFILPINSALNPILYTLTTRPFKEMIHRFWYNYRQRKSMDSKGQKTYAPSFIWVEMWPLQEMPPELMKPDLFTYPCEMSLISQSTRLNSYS

[3] = molecular target: human RXFP2 receptor (human) (UniProt Q8WXD0)
[4] = molecular target: T3, mouse RXFP1 receptor (mouse) (UniProt Q6R6I7)
T3 sequence (looked up): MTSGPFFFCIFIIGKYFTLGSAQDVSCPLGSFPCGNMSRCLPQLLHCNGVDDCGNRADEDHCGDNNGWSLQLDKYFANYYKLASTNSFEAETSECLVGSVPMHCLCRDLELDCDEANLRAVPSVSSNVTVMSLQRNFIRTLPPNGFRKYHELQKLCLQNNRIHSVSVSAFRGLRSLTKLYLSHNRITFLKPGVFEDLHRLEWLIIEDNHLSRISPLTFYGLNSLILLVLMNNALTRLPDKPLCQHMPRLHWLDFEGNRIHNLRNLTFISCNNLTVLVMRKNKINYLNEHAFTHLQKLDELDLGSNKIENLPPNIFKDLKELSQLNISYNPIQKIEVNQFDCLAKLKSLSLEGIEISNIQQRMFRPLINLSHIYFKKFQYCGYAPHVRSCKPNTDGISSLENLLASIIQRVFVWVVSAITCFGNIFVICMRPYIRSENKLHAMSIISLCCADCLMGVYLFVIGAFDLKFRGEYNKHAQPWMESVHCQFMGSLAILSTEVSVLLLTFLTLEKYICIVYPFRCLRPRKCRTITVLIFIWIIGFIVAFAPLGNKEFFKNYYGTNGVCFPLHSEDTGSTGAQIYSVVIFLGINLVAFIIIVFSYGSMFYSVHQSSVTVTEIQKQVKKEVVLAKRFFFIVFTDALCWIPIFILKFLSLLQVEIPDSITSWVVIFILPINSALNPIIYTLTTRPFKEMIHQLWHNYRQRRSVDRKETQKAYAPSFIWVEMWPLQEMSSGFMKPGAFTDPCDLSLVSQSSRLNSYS

rat RXFP1 receptor (rat) = molecular target: T4, rat RXFP1 receptor (rat) (UniProt Q6R6I6)
T4 sequence (looked up): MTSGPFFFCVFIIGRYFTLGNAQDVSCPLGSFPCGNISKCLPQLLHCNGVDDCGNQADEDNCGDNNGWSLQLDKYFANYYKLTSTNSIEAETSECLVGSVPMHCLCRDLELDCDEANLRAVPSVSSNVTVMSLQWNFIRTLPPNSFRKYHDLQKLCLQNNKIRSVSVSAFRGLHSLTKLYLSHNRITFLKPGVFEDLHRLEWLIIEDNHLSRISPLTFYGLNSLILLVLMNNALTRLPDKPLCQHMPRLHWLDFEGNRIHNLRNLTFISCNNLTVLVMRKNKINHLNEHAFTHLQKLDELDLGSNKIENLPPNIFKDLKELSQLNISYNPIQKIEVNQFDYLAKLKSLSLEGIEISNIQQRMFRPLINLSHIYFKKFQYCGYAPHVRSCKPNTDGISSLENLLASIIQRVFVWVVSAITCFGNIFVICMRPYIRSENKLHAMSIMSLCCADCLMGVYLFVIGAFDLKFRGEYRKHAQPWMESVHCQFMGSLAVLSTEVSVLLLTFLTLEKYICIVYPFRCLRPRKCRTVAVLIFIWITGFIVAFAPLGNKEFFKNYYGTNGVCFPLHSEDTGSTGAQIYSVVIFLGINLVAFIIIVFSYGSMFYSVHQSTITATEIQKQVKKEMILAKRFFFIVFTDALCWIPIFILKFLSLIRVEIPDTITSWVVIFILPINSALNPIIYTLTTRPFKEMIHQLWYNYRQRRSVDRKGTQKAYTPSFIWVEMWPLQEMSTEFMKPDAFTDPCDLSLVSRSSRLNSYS

B1: 0054 (protein)
chain: EVQLLESGGGLVQPGGSLRLSCAASGRYIDETAVAWFRQAPGKGREFVAGIGGGVDITYYADSVKGRFTISRDNSKNTLYLQMNSLRPEDTAVYYCAARPGRPLITSKVADLYPYWGQGTLVTVSSGGGGQGGGGQGGGGQGGGGQGGGGQSWMEEVIKLCGRELVRAQIAICGMSTWSGGGSGGSGGGQLYSALANKCCHVGCTKRSLARFC
B1 showed an EC50 (nM), cAMP production in CHO-K1 cells with receptor overexpression [1] of 21.8 nM, an EC50 (nM), cAMP production in CHO-K1 cells with receptor overexpression (dog RXFP1 receptor (dog)) of 3040 nM and an EC50 (nM), cAMP production in CHO-K1 cells with receptor overexpression [2] of 25.6 nM. It also gave an EC50 (nM), cAMP production in THP1 cells, 1% HSA [2] of 15.8 nM, an EC50 (nM), cAMP production in THP1 cells, without HSA [2] of 10.3 nM and an EC50 (nM), cAMP production in CHO-K1 cells with receptor overexpression [3] of 1350 nM. The EC50 (nM), cAMP production in CHO-K1 cells with receptor overexpression [4] was 23.4 nM and the EC50 (nM), cAMP production in CHO-K1 cells with receptor overexpression (rat RXFP1 receptor (rat)) was 10.5 nM.
